In article PMC7679967:

Target: human Hsp90β (HSP90AB1) (human) (UniProt P08238)
Test: SEC-MALS

human Hsp90β (HSP90AB1), P08238 1-724 (natural protein; other documents disagree on this pair), sequence (P08238 whole entry): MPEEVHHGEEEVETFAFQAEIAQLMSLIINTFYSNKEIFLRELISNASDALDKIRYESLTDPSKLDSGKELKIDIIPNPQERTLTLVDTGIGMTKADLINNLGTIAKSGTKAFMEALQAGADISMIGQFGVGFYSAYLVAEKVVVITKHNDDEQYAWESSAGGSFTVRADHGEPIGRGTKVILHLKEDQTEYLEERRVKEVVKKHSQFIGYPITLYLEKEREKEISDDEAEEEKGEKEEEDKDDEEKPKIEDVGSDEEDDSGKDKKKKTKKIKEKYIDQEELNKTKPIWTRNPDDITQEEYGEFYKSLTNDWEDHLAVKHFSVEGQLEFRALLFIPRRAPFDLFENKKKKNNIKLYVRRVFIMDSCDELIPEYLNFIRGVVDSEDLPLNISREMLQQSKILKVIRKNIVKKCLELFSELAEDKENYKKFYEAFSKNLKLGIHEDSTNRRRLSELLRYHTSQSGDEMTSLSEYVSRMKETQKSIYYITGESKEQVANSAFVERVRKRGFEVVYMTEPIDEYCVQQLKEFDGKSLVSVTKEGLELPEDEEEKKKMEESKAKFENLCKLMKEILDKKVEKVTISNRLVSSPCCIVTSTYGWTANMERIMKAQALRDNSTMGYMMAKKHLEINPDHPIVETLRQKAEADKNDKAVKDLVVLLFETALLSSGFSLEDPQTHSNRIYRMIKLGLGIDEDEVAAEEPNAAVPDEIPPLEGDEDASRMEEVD

human Hsp90β (HSP90AB1), P08238 1-724 (natural protein; other documents disagree on this pair)
stoichiometry N: 2
